Reference: the supplement of paper PMC10201428
± gives the standard deviation of the averaged measurements.

What was measured:
[1] = test system: VchCAST RNA-guided transposition machinery (E. coli BL21(DE3) host, lacZ target); assay: relative integration efficiency (T-LR orientation) vs wild-type transposon end (log2 (normalized fold change)); transposon end mutated: left end; higher = more efficient transposition
How it was run: (§1)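 Each barcoded pool, 1549 left-end or 1849 right-end transposon variants in a pUC57 mini-transposon donor, went into E. coli BL21(DE3) with a T7-driven effector plasmid (CRISPR array, tniQ-cas8-cas7-cas6, tnsA-tnsB-tnsC). Plates contained 0.1 mM IPTG and were held at 37°C for 18 h. Input plasmids and genomic integration junctions were PCR-amplified and read by Illumina sequencing, with two biological output replicates and four reference barcodes. Relative integration efficiency is the fold change of output over input barcode abundance, normalised to the reference barcodes and log-transformed.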

[2] = test system: VchCAST RNA-guided transposition machinery (E. coli BL21(DE3) host, lacZ target); assay: relative integration efficiency (T-RL orientation) vs wild-type transposon end (log2 (normalized fold change)); transposon end mutated: left end; higher = more efficient transposition
How it was run: as §1

Sequence | relative integration efficiency (log2) [1] | relative integration efficiency (log2) [2]
AATGTTGTTGATGCAACCATAAGTTGATATTTTATAATTATTTATAATCAGCAACTTAACCACAAAACAACCATAAAATGATAATTAACAAAAGTTGGTATTCAACTATAAAATGTGAATCGAGTATTTCAGCAAAACTACTGCAGTAAGAA | -0.577 ± 0.68 | -2.57 ± 1.1
AATGTTGTTGATGCAACCATAAGTTGATATTTTATAATTATTTATAATCAGCAACTTAACCACAAAACAACCATAAAGTGATATTTAACAAAAGTTGGTATTCAACTATAAAATGTGAATCGAGTATTTCAGCAAAACTACTGCAGTAAGAA | -1.03 ± 1.1 | -2.4 ± 0.96
AATGTTGTTGATGCAACCATAAGTTGATATTTTATAATTATTTATAATCAGCAACTTAACCACAAAACAACCATAAGTTGATATTTTACAAAAGTTGGTATTCAACTATAAAATGTGAATCGAGTATTTCAGCAAAACTACTGCAGTAAGAA | -1.03 ± 2.3 | -3.19 ± 1.4
AATGTTGTTGATGCAACCATAAGTTGATATTTTATAATTATTTATAATCAGCAACTTAACCACAAAACAACCATATATTGATATCTCACAAAAGTTGGTATTCAACTATAAAATGTGAATCGAGTATTTCAGCAAAACTACTGCAGTAAGAA | -1.32 ± 0.89 | -2.64 ± 1.1
AATGTTGTTGATGCAACCATAAGTTGATATTTTATAATTATTTATAATCAGCAACTTAACCACAAAACACCCATAAATTGATAATTAACAAAAGTTGGTATTCAACTATAAAATGTGAATCGAGTATTTCAGCAAAACTACTGCAGTAAGAA | -0.777 ± 0.9 | -2.37 ± 1.2
AATGTTGTTGATGCAACCATAAGTTGATATTTTATAATTATTTATAATCAGCAACTTAACCACAAAACACCCATAAATTGATATTGCACAAAAGTTGGTATTCAACTATAAAATGTGAATCGAGTATTTCAGCAAAACTACTGCAGTAAGAA | -1.01 ± 1.3 | -3.48 ± 1.3
AATGTTGTTGATGCAACCATACCTGTCGCGGGCCGCCGGCGGGCGCCGACTACCAGGCCAACACCCCACCAACGCGCGGTCGCGAGACACCCCACCAACGCCTGGTCGCGGGGGTGTCCGATCTGATTTCAGCAAAACTACTGCAGTAAGAA | < -10 | < -10
AATGTTGTTGATGCAACCATATATTGATATCTCATAATTATTTATAATCAGCAACTTAACCACAAAACAACCATAAAATGATAATTAACAAAAGTTGGTATTCAACTATAAAATGTGAATCGAGTATTTCAGCAAAACTACTGCAGTAAGAA | -1.34 ± 1 | -3.2 ± 1.5
AATGTTGTTGATGCAACCATATATTGATATCTCATAATTATTTATAATCAGCAACTTAACCACAAAACAACCATAAAGTGATATTTAACAAAAGTTGGTATTCAACTATAAAATGTGAATCGAGTATTTCAGCAAAACTACTGCAGTAAGAA | -1.75 ± 1.5 | -3.25 ± 1.2
AATGTTGTTGATGCAACCATATATTGATATCTCATAATTATTTATAATCAGCAACTTAACCACAAAACAACCATAAGTTGATATTTTACAAAAGTTGGTATTCAACTATAAAATGTGAATCGAGTATTTCAGCAAAACTACTGCAGTAAGAA | -1.84 ± 0.76 | -3.58 ± 1.4
AATGTTGTTGATGCAACCATATATTGATATCTCATAATTATTTATAATCAGCAACTTAACCACAAAACAACCATATATTGATATCTCACAAAAGTTGGTATTCAACTATAAAATGTGAATCGAGTATTTCAGCAAAACTACTGCAGTAAGAA | -2.34 ± 0.9 | -3.5 ± 1.4
AATGTTGTTGATGCAACCATATATTGATATCTCATAATTATTTATAATCAGCAACTTAACCACAAAACACCCATAAATTGATAATTAACAAAAGTTGGTATTCAACTATAAAATGTGAATCGAGTATTTCAGCAAAACTACTGCAGTAAGAA | -1.08 ± 1.5 | -3.56 ± 1.4
AATGTTGTTGATGCAACCATATATTGATATCTCATAATTATTTATAATCAGCAACTTAACCACAAAACACCCATAAATTGATATTGCACAAAAGTTGGTATTCAACTATAAAATGTGAATCGAGTATTTCAGCAAAACTACTGCAGTAAGAA | -2.2 ± 1.6 | -4.07 ± 1.2
AATGTTGTTGATGCAACCATATTCACATATTTAATAATTATTTATAATCAGCAACTTAACCACAAAACAACCATAATAACATATCTCACAAAACAACCATATCAACATATTTTTGTGAATCGAGTATTTCAGCAAAACTACTGCAGTAAGAA | < -10 | -7.41 ± 0.33
AATGTTGTTGATGCAACCATCCCTGTCGCGGGCCGCCGGCGGGCGCCGACTACCAGGCCAACACCCCACCAACGCGCGGTCGCGAGACACCCCACCAACGCCTGGTCGCGGGGGTGTCCGATCTGATTTCAGCAAAACTACTGCAGTAAGAA | -9.26 ± 0.31 | < -10
AATGTTGTTGATGCACCCATAAATTGATAATTAATAATTATTTATAATCAGCAACTTAACCACAAAACAACCATAAAATGATAATTAACAAAAGTTGGTATTCAACTATAAAATGTGAATCGAGTATTTCAGCAAAACTACTGCAGTAAGAA | -0.947 ± 1.4 | -2.86 ± 1.1

Sequence | relative integration efficiency (log2) [1] | relative integration efficiency (log2) [2]
AATGTTGTTGATGCACCCATAAATTGATAATTAATAATTATTTATAATCAGCAACTTAACCACAAAACAACCATAAAGTGATATTTAACAAAAGTTGGTATTCAACTATAAAATGTGAATCGAGTATTTCAGCAAAACTACTGCAGTAAGAA | -1.55 ± 1.7 | -2.92 ± 1.1
AATGTTGTTGATGCACCCATAAATTGATAATTAATAATTATTTATAATCAGCAACTTAACCACAAAACAACCATAAGTTGATATTTTACAAAAGTTGGTATTCAACTATAAAATGTGAATCGAGTATTTCAGCAAAACTACTGCAGTAAGAA | -1.17 ± 0.98 | -3.01 ± 1.1
AATGTTGTTGATGCACCCATAAATTGATAATTAATAATTATTTATAATCAGCAACTTAACCACAAAACAACCATATATTGATATCTCACAAAAGTTGGTATTCAACTATAAAATGTGAATCGAGTATTTCAGCAAAACTACTGCAGTAAGAA | -1.82 ± 1.9 | -2.76 ± 1.1
AATGTTGTTGATGCACCCATAAATTGATAATTAATAATTATTTATAATCAGCAACTTAACCACAAAACACCCATAAATTGATAATTAACAAAAGTTGGTATTCAACTATAAAATGTGAATCGAGTATTTCAGCAAAACTACTGCAGTAAGAA | -1.11 ± 1.5 | -2.87 ± 0.73
AATGTTGTTGATGCACCCATAAATTGATAATTAATAATTATTTATAATCAGCAACTTAACCACAAAACACCCATAAATTGATATTGCACAAAAGTTGGTATTCAACTATAAAATGTGAATCGAGTATTTCAGCAAAACTACTGCAGTAAGAA | -1.72 ± 0.67 | -3.68 ± 1.4
AATGTTGTTGATGCACCCATAAATTGATATTGCATAATTATTTATAATCAGCAACTTAACCACAAAACAACCATAAAATGATAATTAACAAAAGTTGGTATTCAACTATAAAATGTGAATCGAGTATTTCAGCAAAACTACTGCAGTAAGAA | -1.26 ± 0.57 | -3.11 ± 1.5
AATGTTGTTGATGCACCCATAAATTGATATTGCATAATTATTTATAATCAGCAACTTAACCACAAAACAACCATAAAGTGATATTTAACAAAAGTTGGTATTCAACTATAAAATGTGAATCGAGTATTTCAGCAAAACTACTGCAGTAAGAA | -1.73 ± 0.93 | -3.26 ± 1
AATGTTGTTGATGCACCCATAAATTGATATTGCATAATTATTTATAATCAGCAACTTAACCACAAAACAACCATAAGTTGATATTTTACAAAAGTTGGTATTCAACTATAAAATGTGAATCGAGTATTTCAGCAAAACTACTGCAGTAAGAA | -1.34 ± 1.4 | -3.46 ± 1.6
AATGTTGTTGATGCACCCATAAATTGATATTGCATAATTATTTATAATCAGCAACTTAACCACAAAACAACCATATATTGATATCTCACAAAAGTTGGTATTCAACTATAAAATGTGAATCGAGTATTTCAGCAAAACTACTGCAGTAAGAA | -1.64 ± 1.3 | -3.48 ± 0.92
AATGTTGTTGATGCACCCATAAATTGATATTGCATAATTATTTATAATCAGCAACTTAACCACAAAACACCCATAAATTGATAATTAACAAAAGTTGGTATTCAACTATAAAATGTGAATCGAGTATTTCAGCAAAACTACTGCAGTAAGAA | -1.55 ± 1.2 | -3.57 ± 1.4
AATGTTGTTGATGCACCCATAAATTGATATTGCATAATTATTTATAATCAGCAACTTAACCACAAAACACCCATAAATTGATATTGCACAAAAGTTGGTATTCAACTATAAAATGTGAATCGAGTATTTCAGCAAAACTACTGCAGTAAGAA | -2.41 ± 2 | -4.32 ± 0.9
AATGTTGTTGATGGTTGGTATTTCACTATAAATATAATTATTTATAATCAGCAACTTAACCACAAAAGTTGGTATATAACTATAGAGACAAAAGTTGGTATTCAACTATAAAATGTGAATCGAGTATTTCAGCAAAACTACTGCAGTAAGAA | < -10 | -8.52 ± 0.29
AATGTTGTTGATGTAATTATCATTTTATGGTTGATAATTATTTATAATCAGCAACTTAACCACAAAACAACCATAAAATGATAATTAACAAAATAATTATCATTTTATGGTTGTGTGAATCGAGTATTTCAGCAAAACTACTGCAGTAAGAA | < -10 | -7.72 ± 0.59
AATGTTGTTGATGTAATTATCATTTTATGGTTGATAATTATTTATAATCAGCAACTTAACCACAAAACAACCATAAAATGATAATTATTTTGTCAACCATAAAATGATAATTATGTGAATCGAGTATTTCAGCAAAACTACTGCAGTAAGAA | < -10 | -8.78 ± 0.35
AATGTTGTTGATGTAATTATCATTTTATGGTTGATAATTATTTATAATCAGCAACTTAACCACAAAATAATTATCATTTTATGGTTGACAAAATAATTATCATTTTATGGTTGTGTGAATCGAGTATTTCAGCAAAACTACTGCAGTAAGAA | < -10 | < -10
